According to patent US20170224620A1 (Pfizer, published 2017):
Bridges are numbered along the chain shown (N, C = ends). [ ]: non-standard residue; d: D form. hCys = N[C@@H](CCS)C(=O)O; Pra = C#CC[C@H](N)C(=O)O

B1: P2-15 (peptide)
peptide: H-DPCTWEVWGRECGG[Pra]G-NH2
modifications: disulfide 3-12
SMILES: C#CC[C@H](NC(=O)CNC(=O)CNC(=O)[C@@H]1CSSC[C@H](NC(=O)[C@@H]2CCCN2C(=O)[C@@H](N)CC(=O)O)C(=O)N[C@@H]([C@@H](C)O)C(=O)N[C@@H](Cc2c[nH]c3ccccc23)C(=O)N[C@@H](CCC(=O)O)C(=O)N[C@@H](C(C)C)C(=O)N[C@@H](Cc2c[nH]c3ccccc23)C(=O)NCC(=O)N[C@@H](CCCNC(=N)N)C(=O)N[C@@H](CCC(=O)O)C(=O)N1)C(=O)NCC(N)=O
B2: P2-18 (peptide)
peptide: H-DACTWEVWGRECGG[Pra]G-NH2
modifications: disulfide 3-12
SMILES: C#CC[C@H](NC(=O)CNC(=O)CNC(=O)[C@@H]1CSSC[C@H](NC(=O)[C@H](C)NC(=O)[C@@H](N)CC(=O)O)C(=O)N[C@@H]([C@@H](C)O)C(=O)N[C@@H](Cc2c[nH]c3ccccc23)C(=O)N[C@@H](CCC(=O)O)C(=O)N[C@@H](C(C)C)C(=O)N[C@@H](Cc2c[nH]c3ccccc23)C(=O)NCC(=O)N[C@@H](CCCNC(=N)N)C(=O)N[C@@H](CCC(=O)O)C(=O)N1)C(=O)NCC(N)=O
B3: P2-20 (truncation, Table 12) (peptide)
peptide: Ac-ACTWEVWGRECGG[Pra]G-NH2
modifications: disulfide 2-11
SMILES: C#CC[C@H](NC(=O)CNC(=O)CNC(=O)[C@@H]1CSSC[C@H](NC(=O)[C@H](C)NC(C)=O)C(=O)N[C@@H]([C@@H](C)O)C(=O)N[C@@H](Cc2c[nH]c3ccccc23)C(=O)N[C@@H](CCC(=O)O)C(=O)N[C@@H](C(C)C)C(=O)N[C@@H](Cc2c[nH]c3ccccc23)C(=O)NCC(=O)N[C@@H](CCCNC(=N)N)C(=O)N[C@@H](CCC(=O)O)C(=O)N1)C(=O)NCC(N)=O
B4: P2-19 (peptide)
peptide: H-ACTWEVWGRECGG[Pra]G-NH2
modifications: disulfide 2-11
SMILES: C#CC[C@H](NC(=O)CNC(=O)CNC(=O)[C@@H]1CSSC[C@H](NC(=O)[C@H](C)N)C(=O)N[C@@H]([C@@H](C)O)C(=O)N[C@@H](Cc2c[nH]c3ccccc23)C(=O)N[C@@H](CCC(=O)O)C(=O)N[C@@H](C(C)C)C(=O)N[C@@H](Cc2c[nH]c3ccccc23)C(=O)NCC(=O)N[C@@H](CCCNC(=N)N)C(=O)N[C@@H](CCC(=O)O)C(=O)N1)C(=O)NCC(N)=O
B5: P2-16 (peptide)
peptide: H-CTWEVWGRECLQGG[Pra]G-NH2
modifications: disulfide 1-10
SMILES: C#CC[C@H](NC(=O)CNC(=O)CNC(=O)[C@H](CCC(N)=O)NC(=O)[C@H](CC(C)C)NC(=O)[C@@H]1CSSC[C@H](N)C(=O)N[C@@H]([C@@H](C)O)C(=O)N[C@@H](Cc2c[nH]c3ccccc23)C(=O)N[C@@H](CCC(=O)O)C(=O)N[C@@H](C(C)C)C(=O)N[C@@H](Cc2c[nH]c3ccccc23)C(=O)NCC(=O)N[C@@H](CCCNC(=N)N)C(=O)N[C@@H](CCC(=O)O)C(=O)N1)C(=O)NCC(N)=O
B6: P2-50 (peptide)
peptide: H-DPCTWEVWGRE[hCys]LQGG[Pra]G-NH2
modifications: disulfide 3-12
SMILES: C#CC[C@H](NC(=O)CNC(=O)CNC(=O)[C@H](CCC(N)=O)NC(=O)[C@H](CC(C)C)NC(=O)[C@@H]1CCSSC[C@H](NC(=O)[C@@H]2CCCN2C(=O)[C@@H](N)CC(=O)O)C(=O)N[C@@H]([C@@H](C)O)C(=O)N[C@@H](Cc2c[nH]c3ccccc23)C(=O)N[C@@H](CCC(=O)O)C(=O)N[C@@H](C(C)C)C(=O)N[C@@H](Cc2c[nH]c3ccccc23)C(=O)NCC(=O)N[C@@H](CCCNC(=N)N)C(=O)N[C@@H](CCC(=O)O)C(=O)N1)C(=O)NCC(N)=O
B7: P2-25 (peptide)
peptide: H-DPCVWEVWGRECLQGG[Pra]G-NH2
modifications: disulfide 3-12
SMILES: C#CC[C@H](NC(=O)CNC(=O)CNC(=O)[C@H](CCC(N)=O)NC(=O)[C@H](CC(C)C)NC(=O)[C@@H]1CSSC[C@H](NC(=O)[C@@H]2CCCN2C(=O)[C@@H](N)CC(=O)O)C(=O)N[C@@H](C(C)C)C(=O)N[C@@H](Cc2c[nH]c3ccccc23)C(=O)N[C@@H](CCC(=O)O)C(=O)N[C@@H](C(C)C)C(=O)N[C@@H](Cc2c[nH]c3ccccc23)C(=O)NCC(=O)N[C@@H](CCCNC(=N)N)C(=O)N[C@@H](CCC(=O)O)C(=O)N1)C(=O)NCC(N)=O
B8: P2-26 (peptide)
peptide: H-DPCSWEVWGRECLQGG[Pra]G-NH2
modifications: disulfide 3-12
SMILES: C#CC[C@H](NC(=O)CNC(=O)CNC(=O)[C@H](CCC(N)=O)NC(=O)[C@H](CC(C)C)NC(=O)[C@@H]1CSSC[C@H](NC(=O)[C@@H]2CCCN2C(=O)[C@@H](N)CC(=O)O)C(=O)N[C@@H](CO)C(=O)N[C@@H](Cc2c[nH]c3ccccc23)C(=O)N[C@@H](CCC(=O)O)C(=O)N[C@@H](C(C)C)C(=O)N[C@@H](Cc2c[nH]c3ccccc23)C(=O)NCC(=O)N[C@@H](CCCNC(=N)N)C(=O)N[C@@H](CCC(=O)O)C(=O)N1)C(=O)NCC(N)=O
B9: P2-17 (peptide)
peptide: H-CTWEVWGRECGG[Pra]G-NH2
modifications: disulfide 1-10
SMILES: C#CC[C@H](NC(=O)CNC(=O)CNC(=O)[C@@H]1CSSC[C@H](N)C(=O)N[C@@H]([C@@H](C)O)C(=O)N[C@@H](Cc2c[nH]c3ccccc23)C(=O)N[C@@H](CCC(=O)O)C(=O)N[C@@H](C(C)C)C(=O)N[C@@H](Cc2c[nH]c3ccccc23)C(=O)NCC(=O)N[C@@H](CCCNC(=N)N)C(=O)N[C@@H](CCC(=O)O)C(=O)N1)C(=O)NCC(N)=O
B10: P2-23 (peptide)
peptide: H-[Pra]CTWEVWGREC-NH2
modifications: disulfide 2-11
SMILES: C#CC[C@H](N)C(=O)N[C@H]1CSSC[C@@H](C(N)=O)NC(=O)[C@H](CCC(=O)O)NC(=O)[C@H](CCCNC(=N)N)NC(=O)CNC(=O)[C@H](Cc2c[nH]c3ccccc23)NC(=O)[C@H](C(C)C)NC(=O)[C@H](CCC(=O)O)NC(=O)[C@H](Cc2c[nH]c3ccccc23)NC(=O)[C@H]([C@@H](C)O)NC1=O
B11: P2-21 (peptide)
peptide: H-[Pra]ACTWEVWGREC-NH2
modifications: disulfide 3-12
SMILES: C#CC[C@H](N)C(=O)N[C@@H](C)C(=O)N[C@H]1CSSC[C@@H](C(N)=O)NC(=O)[C@H](CCC(=O)O)NC(=O)[C@H](CCCNC(=N)N)NC(=O)CNC(=O)[C@H](Cc2c[nH]c3ccccc23)NC(=O)[C@H](C(C)C)NC(=O)[C@H](CCC(=O)O)NC(=O)[C@H](Cc2c[nH]c3ccccc23)NC(=O)[C@H]([C@@H](C)O)NC1=O

biological target: T1, Fc tagged recombinant human EGFR (rhEGFR-Fc, R&D systems, Cat#344-ER-050) (human, UniProt P00533 25-645); test: SPR
T1 construct: Bought protein; also called apo-EGFR; not shown: Fc tag
Protocol: Surface plasmon resonance (SPR) binding studies were carried out on a Biacore T200 instrument (GE Healthcare). […] The contact time and resulting amount of rhEGFR-Fc capture was varied based on the nature of the analyte, namely whether it was a peptide or nanoparticle.
Peptide binding assays were carried out in 10 mM PBS buffer supplemented with 0.05% surfactant P20 and 5% DMSO by volume, at 25° C. Peptides were injected over the rhEGFR-Fc surface for 60 s, followed by dissociation (buffer injection) for 60 s and regeneration with a 10 s pulse of 3M MgCl₂. A fresh rhEGFR-Fc surface was generated for each concentration of each peptide tested. Peptide binding data was analyzed by fitting to a 1:1 Langmuir kinetic model to obtain the on-rate (kₐ), off-rate (kd) and/or equilibrium binding constant (KD) of the interaction.

Row | Binder | KD/P2 KD | Result (affinity relative to KD of P2)
1 | B1 | 0.9 ratio | –
2 | B2 | 1.6 ratio | –
3 | B3 | 3 ratio | –
4 | B4 | 2.4 ratio | –
5 | B5 | 2 ratio | –
6 | B6 | – | 4.56 ratio
7 | B7 | 1.1 ratio | –
8 | H-DPCTFEVWGRECLQGG[Pra]G-NH2 (disulfide 3-12) [P2-29] | 9.24 ratio | –
9 | B8 | 1.68 ratio | –
10 | B9 | 0.4 ratio | –
11 | B10 | 4.5 ratio | –
12 | B11 | 6.7 ratio | –
